From the supplement of paper PMC7877785 come the findings set out here.

The nature of the series: self-splicing fitness, log relative to wild type (ln ratio); higher = more splicing; Tetrahymena group I intron in knt gene, E. coli kanamycin selection, DiMSum; sequences stand for … in CUCUCU…GGAGGGAAAAGUUAUCAGGCAUGCACCUGGUAGCUAGUCUUUAAACCAAUAGAUUGCAUCGGUUUAAAAGGCAAGACCGUCAAAUUGCGGGAAAGGGGUCAACAGCCGUUCAGUACCAAGUCUCAGGGGAAACUUUGAGAUGGCCUUGCAAAGGGUAUGGUAAUAAGCUGACGGACAUGGUCCUAACCACGCAGCCAAGUCCUAAGUCAACAGAUCUUCUGUUGAUAUGGAUGCAGUUCACAGACUAAAUGUCGGUCGGGGAAGAUGUAUUCUUCUCAUAAGAUAUAGUCGGACCUCUCCUUAAUGGGAGCUAGCGGAUGAAGUGAUGCAACACUGGAGCCGCUGGGAACUAAUUUGUAUGCGAAAGUAUAUUGAUUAGUUUUGGAGUACUCGUGGUCG
An outline of the steps:
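Six replicate transformations of E. coli BL21(DE3) with a pET-22b(+) library were grown overnight at 37°C or 30°C. The library randomised all eight P1ex-region intron nucleotides, the intron lying in the knt kanamycin-resistance gene, and plates were LB agar with or without 25 μg/mL kanamycin plus 100 μg/mL carbenicillin, 50 μM IPTG and 0.2% rhamnose. Pooled colonies were amplicon-sequenced on an Illumina HiSeq 2500, and fitness is the DiMSum error-weighted combination of wild-type-normalised replicate fold changes, kanamycin versus none.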

± gives the uncertainty stated by the source.

With GAUUAGCAAUAUUACGACGU, the “self-splicing fitness (ln)” value runs as follows: (30 °C) -0.442 ± 0.063; (37 °C) 0.93 ± 0.089.
Turning to GAUUAGCAAUAUUACGAGAA, the “self-splicing fitness (ln)” value (37 °C) is -1.51 ± 0.3.
On to GAUUAGCAAUAUUACGAGUG, for which the “self-splicing fitness (ln)” value was -1.25 ± 0.094 (30 °C) and -0.616 ± 0.1 (37 °C).
For GAUUAGCAAUAUUACGAUGC, in that order: -0.852 ± 0.083 and -0.525 ± 0.095.
For GAUUAGCAAUAUUACGAUGG, in that order: -3.28 ± 0.15 and -1.17 ± 0.12.
For GAUUAGCAAUAUUACGAUUG, the “self-splicing fitness (ln)” value was -1.71 ± 0.13 (30 °C) and -0.919 ± 0.18 (37 °C).
For GAUUAGCAAUAUUACGCAAU, in that order: -2.41 ± 0.33 and -1.9 ± 0.36.
For GAUUAGCAAUAUUACGCACG, in that order: -1.36 ± 0.12 and -1.14 ± 0.14.
For GAUUAGCAAUAUUACGCAGG, the “self-splicing fitness (ln)” value (37 °C) was -0.28 ± 0.27.
Still for that read-out and setting: then GAUUAGCAAUAUUACGCCAU, with -1.97 ± 0.47.
For the sequence GAUUAGCAAUAUUACGCCCG, the “self-splicing fitness (ln)” value (30 °C) worked out at 0.359 ± 0.24.
For the sequence GAUUAGCAAUAUUACGCUCA, the “self-splicing fitness (ln)” value runs as follows: (30 °C) -0.572 ± 0.12; (37 °C) -0.182 ± 0.17.
Take GAUUAGCAAUAUUACGCUUA: the “self-splicing fitness (ln)” value is, setting by setting: (30 °C) -1.22 ± 0.13; (37 °C) -0.752 ± 0.095.
On to GAUUAGCAAUAUUACGGACU, for which the “self-splicing fitness (ln)” value is -0.413 ± 0.086 (30 °C) and -0.223 ± 0.1 (37 °C).
For GAUUAGCAAUAUUACGGCAC, in that order: -0.128 ± 0.13 and -0.42 ± 0.12.
For GAUUAGCAAUAUUACGGGAC, in that order: -2.53 ± 0.18 and -1.53 ± 0.14.
For GAUUAGCAAUAUUACGGGCC, in that order: -1.66 ± 0.32 and -2.01 ± 0.47.
On to GAUUAGCAAUAUUACGUAAA, for which the “self-splicing fitness (ln)” value is, setting by setting: (30 °C) -2.19 ± 0.15; (37 °C) -0.793 ± 0.19.
For GAUUAGCAAUAUUACGUAAG, in that order: -2.02 ± 0.18 and -0.715 ± 0.29.
For GAUUAGCAAUAUUACGUCGA, in that order: -1.83 ± 0.12 and -0.819 ± 0.11.
For GAUUAGCAAUAUUACGUGCG, in that order: -2.8 ± 0.16 and 0.0923 ± 0.12.
In the case of GAUUAGCAAUAUUACGUGCU, the “self-splicing fitness (ln)” value is, setting by setting: (30 °C) -2.46 ± 0.18; (37 °C) -1.26 ± 0.14.
For GCAAAGCAAUAUUACGAUAU, in that order: -1.41 ± 0.075 and 0.42 ± 0.082.
In the case of GCAAAGCAAUAUUACGAUUU, the “self-splicing fitness (ln)” value reads like this: (30 °C) -0.938 ± 0.06; (37 °C) -0.449 ± 0.082.
For GCAAAGCAAUAUUACGCAAG, in that order: -3.95 ± 0.19 and -2.22 ± 0.14.
For GCAAAGCAAUAUUACGCACC, in that order: -1.15 ± 0.17 and -1.45 ± 0.16.
As for GCAAAGCAAUAUUACGCCGA, the “self-splicing fitness (ln)” value is -2.04 ± 0.31 (30 °C) and -1.82 ± 0.21 (37 °C).
For GCAAAGCAAUAUUACGCGCU, in that order: -3.48 ± 0.23 and -2.01 ± 0.18.
For GCAAAGCAAUAUUACGCGGA, in that order: -3.48 ± 0.27 and -1.94 ± 0.17.
For GCAAAGCAAUAUUACGCGGU, in that order: -4.16 ± 0.22 and -2.67 ± 0.24.
In the case of GCAAAGCAAUAUUACGCUAA, the “self-splicing fitness (ln)” value is -2.19 ± 0.14 (30 °C) and -1.29 ± 0.12 (37 °C).
GCAAAGCAAUAUUACGCUGA: the “self-splicing fitness (ln)” value was -2.59 ± 0.12 (30 °C) and -2.04 ± 0.11 (37 °C).
As for GCAAAGCAAUAUUACGGACG, the “self-splicing fitness (ln)” value (30 °C) was -1.4 ± 0.091 and the “self-splicing fitness (ln)” value (37 °C) amounted to 0.261 ± 0.14.
Regarding GCAAAGCAAUAUUACGGCAA, the “self-splicing fitness (ln)” value was -0.673 ± 0.094 (30 °C) and -0.722 ± 0.091 (37 °C).
For GCAAAGCAAUAUUACGGCAC, in that order: -0.648 ± 0.081 and -0.426 ± 0.09.
For GCAAAGCAAUAUUACGGCAG, in that order: -3.61 ± 0.22 and -2.81 ± 0.31.
For GCAAAGCAAUAUUACGGCCA, in that order: -2.11 ± 0.24 and -0.962 ± 0.19.
GCAAAGCAAUAUUACGGUAG: the “self-splicing fitness (ln)” value is -2.68 ± 0.14 (30 °C) and -3.34 ± 0.23 (37 °C).
For GCAAAGCAAUAUUACGUAAA, in that order: -0.824 ± 0.062 and -0.5 ± 0.085.
For GCAAAGCAAUAUUACGUAAG, in that order: -1.92 ± 0.1 and -0.569 ± 0.11.
Turning to GCAAAGCAAUAUUACGUCCU, the “self-splicing fitness (ln)” value is, setting by setting: (30 °C) -0.435 ± 0.1; (37 °C) 0.035 ± 0.12.
For GCAAAGCAAUAUUACGUCUC, in that order: -1.02 ± 0.11 and -0.501 ± 0.12.
For GCAAAGCAAUAUUACGUGGU, the “self-splicing fitness (ln)” value was -3.38 ± 0.15 (30 °C) and -2.59 ± 0.15 (37 °C).
For GCAAAGCAAUAUUACGUUCA, in that order: -0.597 ± 0.064 and -0.534 ± 0.077.
For GCACAGCAAUAUUACGAAGC, in that order: -2.52 ± 0.23 and -0.749 ± 0.15.
For GCACAGCAAUAUUACGAGAC, the “self-splicing fitness (ln)” value reads like this: (30 °C) -2.51 ± 0.17; (37 °C) -2.06 ± 0.18.
For GCACAGCAAUAUUACGAGUA, in that order: -1.31 ± 0.084 and -0.881 ± 0.088.
For GCACAGCAAUAUUACGAUAA, in that order: -1.31 ± 0.07 and -0.957 ± 0.096.
For GCACAGCAAUAUUACGAUCC, in that order: -0.381 ± 0.11 and -0.0747 ± 0.16.
GCACAGCAAUAUUACGCAUG: the “self-splicing fitness (ln)” value (30 °C) is -2.95 ± 0.19 and the “self-splicing fitness (ln)” value (37 °C) was -0.809 ± 0.12.
For GCACAGCAAUAUUACGCCGG, in that order: -1.25 ± 0.1 and -0.896 ± 0.16.
For GCACAGCAAUAUUACGCGUA, in that order: -0.987 ± 0.094 and -0.173 ± 0.086.
For GCACAGCAAUAUUACGCUAA, in that order: -1.6 ± 0.092 and -0.281 ± 0.089.
With GCACAGCAAUAUUACGGAGU, the “self-splicing fitness (ln)” value is, setting by setting: (30 °C) -1.69 ± 0.05; (37 °C) -0.838 ± 0.061.
Turning to GCACAGCAAUAUUACGGAUA, the “self-splicing fitness (ln)” value was -2.49 ± 0.17 (30 °C) and -1.38 ± 0.12 (37 °C).
For GCACAGCAAUAUUACGGCCC, in that order: -0.235 ± 0.1 and -0.615 ± 0.13.
For GCACAGCAAUAUUACGGGCG, in that order: -1.4 ± 0.071 and 0.0832 ± 0.081.
GCACAGCAAUAUUACGGGGU: the “self-splicing fitness (ln)” value was -2.83 ± 0.13 (30 °C) and -1.35 ± 0.11 (37 °C).
GCACAGCAAUAUUACGUACC: the “self-splicing fitness (ln)” value is, setting by setting: (30 °C) -1.47 ± 0.096; (37 °C) -0.717 ± 0.13.
On to GCACAGCAAUAUUACGUACG, for which the “self-splicing fitness (ln)” value by setting is: (30 °C) -0.945 ± 0.092; (37 °C) -0.0901 ± 0.098.
For GCACAGCAAUAUUACGUAGG, in that order: -0.466 ± 0.055 and -0.109 ± 0.069.
GCACAGCAAUAUUACGUAGU: the “self-splicing fitness (ln)” value is -0.976 ± 0.057 (30 °C) and -0.516 ± 0.072 (37 °C).
For GCACAGCAAUAUUACGUAUA, in that order: -0.999 ± 0.06 and -0.413 ± 0.07.
GCACAGCAAUAUUACGUAUG: the “self-splicing fitness (ln)” value (30 °C) is -2.21 ± 0.073 and the “self-splicing fitness (ln)” value (37 °C) is -1.52 ± 0.079.
For GCACAGCAAUAUUACGUCAC, in that order: -3.68 ± 0.26 and -2.42 ± 0.32.
For GCACAGCAAUAUUACGUCAU, in that order: -1.89 ± 0.071 and -0.731 ± 0.082.
For GCACAGCAAUAUUACGUCCG, in that order: -0.402 ± 0.09 and -0.201 ± 0.11.
As for GCACAGCAAUAUUACGUCUU, the “self-splicing fitness (ln)” value is, setting by setting: (30 °C) -0.723 ± 0.053; (37 °C) 0.267 ± 0.064.
For GCACAGCAAUAUUACGUGAA, in that order: 0.0235 ± 0.053 and -0.102 ± 0.068.
For GCACAGCAAUAUUACGUGAU, in that order: -0.331 ± 0.029 and 0.114 ± 0.044.
For GCACAGCAAUAUUACGUGGC, in that order: -4.03 ± 0.18 and -2.74 ± 0.15.
GCAGAGCAAUAUUACGAACU: the “self-splicing fitness (ln)” value reads like this: (30 °C) -0.968 ± 0.14; (37 °C) -1.1 ± 0.19.
With GCAGAGCAAUAUUACGAAUA, the “self-splicing fitness (ln)” value by setting is: (30 °C) -3.67 ± 0.32; (37 °C) -2.78 ± 0.26.
As to GCAGAGCAAUAUUACGAAUG, the “self-splicing fitness (ln)” value (30 °C) is -2.71 ± 0.35.
With GCAGAGCAAUAUUACGACAC, the “self-splicing fitness (ln)” value is -1.46 ± 0.2 (30 °C) and -0.344 ± 0.33 (37 °C).
For GCAGAGCAAUAUUACGAGUU, in that order: -4.28 ± 0.16 and -1.82 ± 0.095.
For GCAGAGCAAUAUUACGCCAG, the “self-splicing fitness (ln)” value (30 °C) is -2.36 ± 0.48.
